Measurements as given in article PMC7275062.

B1: Plasmodesmata-located protein 5 (PDLP5), EGFP or mCherry fusion [Arabidopsis thaliana] / itself (parent)
chain: SPTDNYIYAVCSPAKFSPSSGYETNLNSLLSSFVTSTAQTRYANFTVPTGKPEPTVTVYGIYQCRGDLDPTACSTCVSSAVAQVGALCSNSYSGFLQMENCLIRYDNKSFLGVQDKTLILNKCGQPMEFNDQDALTKASDVIGSLGTGDGSYRTGGNGNVQGVAQCSGDLSTSQCQDCLSDAIGRLKSDCGMAQGGYVYLSKCYARFSVGGSHARQTPGPNFGHEGEKGNKDDNGVGKTLAIIIGIVTLIILLVVFLAFVGKCCRKLQDEKWCK
B2: Plasmodesmata-located protein 5 (PDLP5), EGFP or mCherry fusion [Arabidopsis thaliana] / Plasmodesmata-located protein 5 (PDLP5), EGFP or mCherry fusion [Arabidopsis thaliana] (parent)
chain 1: B1 chain
chain 2: B1 chain

Variants of: B1
Experiment: FRET
Details: with itself; at plasmodesmata; EGFP-fused donor and mCherry-fused acceptor; n=12; parent: 20; read off a plot

Row | response (% FRET efficiency) | Variant
1 | 17 | chain 1 A241V G245V

Variants of: B2
Experiment: FRET
Details: with Plasmodesmata-located protein 5 (PDLP5), at plasmodesmata, PDLP5-EGFP donor and PDLP5VV-mCherry acceptor, n=21, parent: 20, read off a plot

Row | response (% FRET efficiency) | Variant
2 | 16 | chain 1 A241V G245V

Same assay, conditions: with Plasmodesmata-located protein 5 (PDLP5), at plasmodesmata, PDLP5VV-EGFP donor and PDLP5-mCherry acceptor, n=15, parent: 20, read off a plot

Row | response (% FRET efficiency) | Variant
3 | 19 | chain 1 A241V G245V
